Non-standard residues stand in square brackets, D forms with d. No end group written: not given here.
Experiments:
[1] = biological target: T1, human activated factor IX (human FIXa) (human, UniProt P00740 47-191; P00740 227-461); assay: cell-based or functional assay
[2] = biological target: T1, human activated factor IX (human FIXa); assay: cell-based or functional assay; remark: listed apart in the source
[3] = biological target: T1, human activated factor IX (human FIXa); assay: cell-based or functional assay; remark: listed apart in the source
[4] = biological target: T2, human coagulation factor (F) IX (human, UniProt P00740 47-461); assay: Western blot and ELISA
T2 construct: also called Factor IX; factor IX
T2 sequence (P00740 47-461 limits assumed): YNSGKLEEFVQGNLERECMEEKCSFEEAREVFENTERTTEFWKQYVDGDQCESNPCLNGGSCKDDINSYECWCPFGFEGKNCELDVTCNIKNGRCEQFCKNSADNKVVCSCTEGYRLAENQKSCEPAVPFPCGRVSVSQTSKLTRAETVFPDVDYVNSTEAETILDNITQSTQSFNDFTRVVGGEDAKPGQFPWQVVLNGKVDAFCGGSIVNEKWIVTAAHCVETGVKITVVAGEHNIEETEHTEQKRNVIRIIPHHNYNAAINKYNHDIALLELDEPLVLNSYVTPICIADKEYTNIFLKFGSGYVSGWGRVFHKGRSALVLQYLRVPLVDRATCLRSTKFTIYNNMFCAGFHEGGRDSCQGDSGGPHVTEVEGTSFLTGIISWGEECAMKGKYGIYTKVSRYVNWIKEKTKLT

Row | Molecule | clotting time, aPTT one-stage assay (Table 4), 2.2 nM FIXa, peptide 1.25 µM, average (IZ buffer 96) [3] | clotting time, aPTT one-stage assay (Table 4), 2.2 nM FIXa, peptide 1.25 µM, duplicate 1 (IZ buffer 96) [3] | clotting time, aPTT one-stage assay (Table 4), 2.2 nM FIXa, peptide 1.25 µM, duplicate 2 (IZ buffer 96) [3] | clotting time, aPTT one-stage assay (Table 4), 2.2 nM FIXa, peptide 2.5 µM, average (IZ buffer 96) [3] | clotting time, aPTT one-stage assay (Table 4), 2.2 nM FIXa, peptide 2.5 µM, duplicate 1 (IZ buffer 96) [3] | clotting time, aPTT one-stage assay (Table 4), 2.2 nM FIXa, peptide 2.5 µM, duplicate 2 (IZ buffer 96) [3] | clotting time, aPTT one-stage assay (Table 4), 2.2 nM FIXa, peptide 5 µM, average (IZ buffer 96) [3] | clotting time, aPTT one-stage assay (Table 4), 2.2 nM FIXa, peptide 5 µM, duplicate 1 (IZ buffer 96) [3] | clotting time, aPTT one-stage assay (Table 4), 2.2 nM FIXa, peptide 5 µM, duplicate 2 (IZ buffer 96) [3] | clotting time, aPTT one-stage assay (Table 4), 2.2 nM FIXa, peptide 7.5 µM, average (IZ buffer 96) [3] | clotting time, aPTT one-stage assay (Table 4), 2.2 nM FIXa, peptide 7.5 µM, duplicate 1 (IZ buffer 96) [3] | clotting time, aPTT one-stage assay (Table 4), 2.2 nM FIXa, peptide 7.5 µM, duplicate 2 (IZ buffer 96) [3] | clotting time, aPTT one-stage assay (Table 4), 2.2 nM FIXa, peptide 10 µM, average (IZ buffer 96) [3] | clotting time, aPTT one-stage assay (Table 4), 2.2 nM FIXa, peptide 10 µM, duplicate 1 (IZ buffer 96) [3] | clotting time, aPTT one-stage assay (Table 4), 2.2 nM FIXa, peptide 10 µM, duplicate 2 (IZ buffer 96) [3] | clotting time, aPTT one-stage assay (Table 4), 2.2 nM FIXa, peptide 12.5 µM, average (IZ buffer 96) [3] | clotting time, aPTT one-stage assay (Table 4), 2.2 nM FIXa, peptide 12.5 µM, duplicate 1 (IZ buffer 96) [3] | clotting time, aPTT one-stage assay (Table 4), 2.2 nM FIXa, peptide 12.5 µM, duplicate 2 (IZ buffer 96) [3] | clotting time, aPTT one-stage assay (Table 4), 2.2 nM FIXa, peptide 15 µM, average (IZ buffer 96) [3] | clotting time, aPTT one-stage assay (Table 4), 2.2 nM FIXa, peptide 15 µM, duplicate 1 (IZ buffer 96) [3] | also measured
1 | Factor VIII (from UniProt P00451 20-2351) | – | – | – | – | – | – | – | – | – | – | – | – | – | – | – | – | – | – | – | – | clotting time, aPTT one-stage (Pathromtin SL), FVIII deficient plasma, 2.2 nM human FIXa, FVIII 6.25 mU/ml, average (IZ buffer 108) [1]: 59 s; clotting time, aPTT one-stage (Pathromtin SL), FVIII deficient plasma, 2.2 nM human FIXa, FVIII 6.25 mU/ml, duplicate 1 (IZ buffer 107.9) [1]: 58.6 s; clotting time, aPTT one-stage (Pathromtin SL), FVIII deficient plasma, 2.2 nM human FIXa, FVIII 6.25 mU/ml, duplicate 2 (IZ buffer 108.7) [1]: 58.9 s; clotting time, aPTT one-stage (Pathromtin SL), FVIII deficient plasma, 2.2 nM human FIXa, FVIII 12.5 mU/ml, average (IZ buffer 108) [1]: 53 s; clotting time, aPTT one-stage (Pathromtin SL), FVIII deficient plasma, 2.2 nM human FIXa, FVIII 12.5 mU/ml, duplicate 1 (IZ buffer 107.9) [1]: 52.9 s; clotting time, aPTT one-stage (Pathromtin SL), FVIII deficient plasma, 2.2 nM human FIXa, FVIII 12.5 mU/ml, duplicate 2 (IZ buffer 108.7) [1]: 53.6 s
2 | unspecific mouse IgG (antibody) | – | – | – | – | – | – | – | – | – | – | – | – | – | – | – | – | – | – | – | – | clotting time, aPTT one-stage assay, FVIII deficient plasma, 50 ng FIXa, 0.23 µg antibody [1]: 104 s; clotting time, aPTT one-stage assay, FVIII deficient plasma, 50 ng FIXa, 0.34 µg antibody [1]: 104 s; clotting time, aPTT one-stage assay, FVIII deficient plasma, 50 ng FIXa, 0.45 µg antibody [1]: 102 s; clotting time, aPTT one-stage assay, FVIII deficient plasma, 50 ng FIXa, 0.9 µg antibody [1]: 102 s; clotting time, aPTT one-stage assay, FVIII deficient plasma, 50 ng FIXa, 1.35 µg antibody [1]: 103 s; clotting time, aPTT one-stage assay, FVIII deficient plasma, 50 ng FIXa, 1.8 µg antibody [1]: 102 s; clotting time, aPTT one-stage assay, FVIII deficient plasma, 50 ng FIXa, 2.25 µg antibody [1]: 103 s; clotting time, aPTT one-stage assay, FVIII deficient plasma, 50 ng FIXa, 4.5 µg antibody [1]: 103 s; clotting time, aPTT one-stage assay, FVIII deficient plasma, 50 ng FIXa, 9 µg antibody [1]: 102 s
3 | monoclonal antibody 198/B1 (antibody, V domains shown) VH: EVQLQESGGGLVKPGGSLKLSCAASGFTFSSYTMSWVRQTPEKRLEWVATISSGGSSTYYPDSVKGRFTISRDNAKNTLYLQMSSLRSEDTAMYYCTREGGGFTVNWYFDVWGAGTLVTVSA VL: ENVLTQSPASLAVSLGQRATISCRASESVDSYGYNFMHWYQQIPGQPPKLLIYRASNLESGIPARFSGSGSRTDFTLTINPVEADDVATYYCQQSNEDPLTFGTGTRLEIKR | – | – | – | – | – | – | – | – | – | – | – | – | – | – | – | – | – | – | – | – | amidolytic activity of FIXa (cleavage of CH3SO2-D-CHG-Gly-Arg-pNA, OD405), 20 mU FIXa (Stago), various amounts of antibody [2]: ≥ 2 fold
4 | [dR][dR][dR]GEYGVYWNGDFY[dR][dR][dR] [peptide A1/3-Rd-srmb] | 103 s | 101 s | 105 s | 105 s | 105 s | 104 s | 108 s | 108 s | 108 s | 107 s | 108 s | 107 s | 108 s | 107 s | 108 s | 108 s | 108 s | 108 s | 113 s | 113 s | clotting time, aPTT one-stage assay (Table 4), 2.2 nM FIXa, peptide 15 µM, duplicate 2 (IZ buffer 96) [3]: 112 s
5 | irrelevant monoclonal antibody #8860 (antibody, V domains shown, Tested as the monoclonal antibody) VH: EVQLQQSGPELVKPGASVKISCKASGYAFSSSWMNWVKQRPGQGLEWIGRIYPGNGDTNYNGKFKGKATLTADKSSSTAYMQLSSLTSVDSAVYFCADGNVYYYAMDYWGQGTSVTVSS VL: QIVLTQSPASLAVSLGQRATISCRASKSVSTSGYSYMHWYQQKPGQPPKLLIYLASNLESGVPARFSGSGSGTDFTLNIHPVEEEDAATYYCQHSRELPRTFGGGTKLEIKR | – | – | – | – | – | – | – | – | – | – | – | – | – | – | – | – | – | – | – | – | binding result [4]: no binding
6 | [dR][dR][dR]EGGGYYVNWYFD[dR][dR][dR] [peptide A1/3-Rd] | 96 s | 96.6 s | 96 s | 95 s | 94.4 s | 94.7 s | 86 s | 86 s | 85.1 s | 82 s | 80.9 s | 82.2 s | 76 s | 74.2 s | 77.2 s | 73 s | 72.3 s | 73.7 s | 75 s | 76.1 s | clotting time, aPTT one-stage assay (Table 4), 2.2 nM FIXa, peptide 15 µM, duplicate 2 (IZ buffer 96) [3]: 74.4 s
7 | RRREGGGYYVNWYFDRRR [peptide A1/3] | 95 s | 94.4 s | 95 s | 93 s | 93.6 s | 93.3 s | 89 s | 89.7 s | 88.3 s | 81 s | 80.7 s | 80.5 s | 73 s | 72 s | 73.2 s | 67 s | 65 s | 68 s | 56 s | 56.1 s | clotting time, aPTT one-stage assay (Table 4), 2.2 nM FIXa, peptide 15 µM, duplicate 2 (IZ buffer 96) [3]: 55.5 s

From patent publication US7033590 (BAXTER AKTIENGESELLSCHAFT, dated 2006)
